The nanobody polyreactivity screen of Harvey et al. (2022)

Assay: yeast display, Sf9 membrane polyspecificity reagent, FACS + sequencing; frameworks hold sequencing errors
In short: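 Using colony PCR, genes from sorted yeast display clones were amplified, then sequenced on MiSeq at 2 × 250 and filtered by CDR length. The clones had been stained with 10% biotinylated, detergent-solubilized Sf9 membrane reagent for 1 hour at 4 °C and sorted by FACS into low and high (top ~1%) gates on anti-HA and streptavidin fluorescence. Polyreactivity labels come from the gate of origin.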

Sequence | polyreactivity (PSR sort gate)
QVQLVESGGGLVQAGGSLRLSCAASGSTFGQNAMGWYRQAPGKERELVAAITRRGVSTYYADSVKGRFTISRDNAKNTVYLQMNSLKPEDTAVYYCAKRYHPNSPYDYWGQGTQVTVSS | low polyreactivity
QVQLVESGGGLVQAGGSLRLSCAASGRIFPGYTMGWYRQAPGKEREFVAAISYSGGSTYADSVKGRFTISRDNAKNTVYLQMNSLKPEDTAVNYCAVVLQHWLDMYYWGQGTQVTVSS | low polyreactivity
QVQLVESSGGLVQAGGSLRLSCAASGSTFALYAMGRYSQAPGKERELVAAITASGGSTYYADSVKGRLTISRDIAKKTVDLQMNSLKAEDTAVYYCATGRTKRYLYPPGYWGQGTQVTVSS | high polyreactivity
QVQLVESGGGLVQAGGSLCLSCAASGIFVYNAMGWYRPAPGKEREFVAAINKSGASTFYADSVKGRFTISRDTAKNTVYLQMNSLKPEDTAVYYCRERDYWGQGTQVTVSS | low polyreactivity
QVQLVESGGGLVQAGGSLRLSCAASGSIFTGNAMGWYRQAPGKERELVAAISSTGTTNYADSVKGRFTISRDNAKNTVYLQMNSLKPEDTAVYYCARRWYSTWWYGYWGQGTQVTVSS | high polyreactivity
QVQLVESGGGLVQAGGSLRLSCAASGSTFDTNAMGWYRQAPGKERELVATITSIGGSTYADSVKGRFTISRDNAKNTVYLQMNSLKPEDNAVYYCATDYVEIDYYYDYWGQGTQVTVSS | low polyreactivity
QFQLVDSGRGLVQAGGSLRLSCAASGRTFPHYAMGWYRQAPGKERELVAAISSRGGSTYYADSVKGRFTISRDNVKNTVYLQMNSLKPEDTAVYYCAATVGLYRSREYGYWGQGTQVTVSS | low polyreactivity
QVQLVESGGGLVQAGGSLRLSCAASGRTIVTNAMGWYRQAPGKERELVAAITTRGSRTYYADSVKGRFTISRDNAKNTVYLQMNSLKPEDTAVYYCAAKQKHTQQTGWKYEYWGQGTQVTVSS | high polyreactivity
QVQLVESGGVLVQAGGRLGLSCAASGSTLRAYAMGWYRQATGKVRELVATISSGGRTYYADSVKGRFTISRDNAKNTVYLQMNSLKPEDTAVYYSAKREHGFFYYTYDYWGQGTQVTVSS | low polyreactivity
QVQLVESGGGLVQAGGSLRLSCAASGFIIYRYAMGWYRQAPGKEWELVAAISKRGGSTYYADSVKGRFTISRDNAKNTVYLQMNSLKPEDTAVYYCAANRSYVDSTSFGKAYGYWGQGTQVTVSS | high polyreactivity
QVQLVESGGGLVQAGGSLRLTCAASGRIFTHNAMGWYRQAPGKVRELVAAITSGGRTTYADSVKGRFTISRDNAKNTVYLQMNSLKPEDSAVYDCNADTGLGSLDFDKRDYWGQGTQVTVSS | low polyreactivity
QVQLVESGGGLVQAGGSLRLSCAASGSIVVHNAMGWYRQAPGKERELVAAITWSGGSTYYADSVKGRFTISRDNAKNTVYLQMNSLKPVDTAVYYCAAEDVAAQWAYESPTSYWYYYWGQGTQVTVSS | low polyreactivity
QVQLVESGGGLVKAGGSLRLSCADSGRTFYINAMGWYRQAPGKERELVAAISNYGSSTYYADTVKGRFTISRDNAKYTVYLLMISLKPVDSAVYYCAASYGYGGDYDYWGQGTQGTVSS | high polyreactivity
QEQLQESGGGLVLAGGSLRLSCSASGNISVYGSMGWYRQAPGKELEFVATIDPGTNTNYADSVKDRFTISRDNAKNTVYLQMNSLKPEDRAVYYCAVEAGSDWPFRYWGQGTQVTVSS | low polyreactivity
QVQLVESGGGLVQAGGSLRLSCAASGFTLNGYAMGWYRQAPGKERELVAAISSSGGRTYYADSVKGRFTISRDNAKNTVYLQMNCLKPEDTAVYYCAAVVYYEDGYWGQGTQVTVSS | low polyreactivity
QVQLVESGGGFVQARGSLRLSCAACGRTYFPNAMGWYRQAPGKERELVAAITTSGGITYYADSVKGRFTISRDNAKNTVYLQMNSLKPEDTAVYYCATEWRTTGYRYYYWGQGTQVTVSS | high polyreactivity
QVQLVESGGGLVQAGGSLRLSCAASGITIRYYTMGWYRQAPGKESELVASISWSGTSTHYADSVKGRFTISRDNAKNTVYLQMNSLKPEDTAVYYCAATITSLAGVYRNGYTSYYWGQGTQVTVSS | high polyreactivity
QVQLVESGGVLVQAGGSLRLSCAASGIIFFYNAMGWYRQAPGKERELVAAISARGGRTYYADSVKGRFTISRDNAKNTVYLQMNSLKPEDTAVYYCNAYRYGWEDMDYWGQGTQVTVSS | high polyreactivity
QVQLVESGGALGQAGGRLRLTCAASGSTFSIYGMGWYRQAHGKEREFVAALRTSGGRTYADSVKGRFTISRDNAKNTVYLQLNSLKPDDPAVDYCAAHVNYIYDWGQGTQVTVSS | high polyreactivity
QVQLVESGGGLVQAGGILRLSCAASGRTFAPYTMGWYRQAPGKERELVAVITRRDGRTYYADSVKGRFTISRDNAKNTFYLQMKSLKPEDNAVYYCCFLPADWYRPVRYLRTDSDYWGQGTKVTVSS | low polyreactivity
QVQLVESGGGLVQAGGSLRLSCAASGRIFGYYAMGWYRPAPGKERELVAGITSGGITNYADSVKGRFTISRDNAKNTVYLQMNSLKPEDTAVYYCAARSGYYYRVKFYYWGQGTQVSVSS | high polyreactivity

Sequence | polyreactivity (PSR sort gate)
QVQLVESGGGLVQAGGSLRVSCASSGSIFLDNAMEWYRQAPGKERELVAAISYGDGSTYYADSVKGRITISRDNAKNTVYLQMNRLKPEDTAVYYCAAERYTIPPIYDYWGQGTQVTVSS | low polyreactivity
QVQLVESGGGLVQAGGSLRLSCAASGGTFAVYAMGWYRQAPGKEREWVAAIDSGGRTNYADSVKGRFTISRDNAKNTVYLQMNSLKPEDTAVYYCAADGGGQYVRYDYWGQGTQVTVSS | high polyreactivity
QVQLVESGAGLVQAGGILRLSCAASGRTFKVYAMGWDRQAPGKERELVAAISDRGGSTYDADSVKGRFTISRDYAKNTVYLQMNSLKPVDTAVYYCSAEYARSTWRAFPELDYWGQGTQVTVSS | low polyreactivity
QVQLVESGGGLVQAGGSLRLSCAASGSILDPNAMGWYRQAPGKERELVAAISSSGGSTYYADSVKGRFTISRDNAKNTVYLQMNSLKPEDTAVYYCAADHFIPIYSKYDYWGQGTQVTVSS | high polyreactivity
QVQLVESGGGLVQAGGSLRLSCAASGIIFNYYTMGWYRQAPGKERELVAVITSRGSSPYYADSVKGRFTISRDNAKNTVNLQMNSLKPDDTAVYYCAKVRPYLDTNEYYYWGQGTQVTVSS | high polyreactivity
QVQLVDSGGGLVQAGGSLRLICAASGRTIWYYAMGWYRQAPGKERELLASITRSGGSTYADSVKGRFTISRDNAKNSVYLQMYSLKPEDTAVDYCAATRPRIPVYQNNYGYWGQGTQVTVSS | high polyreactivity
QVQLVESGGGLVQAGGSLRLTCAASGRIFRPYTMGWYRQAPGKESELVARISISTGRTYYADSVKGRFTISRDNAKNTVYLQMNSLKPEDTAVYYCATRGYRWSVFDYWGQGTQVTVSS | high polyreactivity
QVQLVESGGGLVQAGGSLRLSCAASGFIFAWYAMGWYRQAPGKERELVASISVSDGSTYYADSVKGRFTISRDNAKNTVYLQMNSLKPEDTAVYYCAAEVSSDYYNSDYYWGQGTQVTVSS | low polyreactivity
QVQLVESGGGLVQAGGSLRLSCAASGFTLWLNAMGWYRQAPGTERELVAAITTSDDGTYYADSVKGRFTISRDNAKNTVYLQMNSLKPEDTAVYYCAADYYSVLYDYWGQGTQVTVSS | low polyreactivity
QVQLVESGGGLVQAGGSLRLSCAASGRIFRKYAMGWYRQAPGKERELVAAISGSGGSTYYADSVKGRFTISRDNAKNTVYLQMNSLKPEDTAVYYCAASAGRYSSTLGYYWGQGTQVTVSS | high polyreactivity
QVQLVESGGGLVQAGGSLRLSCAASGSIFPEYAMGWYRQAPGKERELVASISSGGSSTYYADSVKGRFTISRDNAKNTVYLQMNSLKPEDTAVYYCARRRSYKRRFDYWGQGTQVTVSS | low polyreactivity
QVQLVESGGGLVQAGGSLRLSCAASGRIFFVYAMGWYRQAPGKERELVAAITASGGSTYYADSVKVRFTISRDNAKNSVYLQMNSLNPEDTAVYDCAAAGYGWGGYREYGWGQGTQVTVSS | low polyreactivity
HVQLVESGGGLVQAGGSLRLSCAASGFMFSGYAMGWYRQAPGKVRELVAAITWSGSNTFYADSVKGRFTISRDNAKNTVYLQRNSLKPEDTAVYYCNAVSKYKRSDYYYWGQGTQVTVSS | high polyreactivity
QVQLVESGGGLVQAGGSLRLSCAASGRTFNAYTMGWYRQAPGKERELVAAITRSGARTYYADSVKGRFTISRDNAKNTVYLQMNSLKPEDTAVYYCNKAAFNYYLYGYWGQGTQVTVSS | high polyreactivity
QVQLVESGGGLVQAGGSLRLSCAASGSIFLVYAMGWYRQAPGKERELVAAIRWSGGSTYYADSVKGRFTISRDNAKNTVYLQMNSLKPEDTAVYYCNAGESYSVKGGPYDSDYWGQGTQVTVSS | low polyreactivity
QVQLVESGGGLVQAGGSLRLSCAASGSTFSGNAMGWYRQAPGKEREMVAAITSSRGSTYYADSVKGRFTISRDHAQNTVDLQLNSLKPEDTAVYYCNRYSGGRWYPEYYYWGQGTQVTVSS | high polyreactivity
QVQLVESGGGLVQAGGSLRLSCAAYGFTIRRYAMGWSIQAPGKERELVAAITWSAGSTYYADSVKGRFTISRDNAKYTVYLQMNSLKPEDTAVYYCAARCKRWGADSGYYWGNGTQVTVSS | high polyreactivity
QVQLVESGGGLVHAGGSLRLSCAASGRIFIANTMGWYRQATGKERELVAAITQRGDSTYYADSVKGRCTISRDNAKNTVDLQMNSLKPEDTAVYYCAARYYLSSYVRYNYWGQGTQVTVSS | high polyreactivity
QVQLVESGGGLVQAGGSLRLSCAASGIFGSYAMGWYRQAPGKERELVAAISSGGSTYYADSVKGRFTISRDNAKNTVYLQMNSLKPEDTAVYYCAKRYGRAYRSYYWGQGTQVTVSS | high polyreactivity
QVQLVESGGGLVQAGGSLRLSCAASGSTLSHYAMGWYRQAPGKERELVAAINSNGGSTYYADSVKGRFTISRDNAKNTVYLQMNSLKPEDTAVYYCNTYFRYFSFYGRPFDYWGQGTQVTVSS | high polyreactivity
